In publication PMC9184547, “Distinct dissociation rates of murine and human norovirus P-domain dimers suggest a role of dimer stability in virus-host interactions” (Communications Biology, 2022):

Experiments:
[1] = target: GII.4 Saga P-domain deamidated at position 373 (iso-aspartate, iD) (human norovirus GII.4 Saga); assay: ion-exchange chromatography of exchanging dimers; 373iD/iD and 373Q/Q dimers mixed 1:1, total 1.24 mg/ml, 75 mM sodium phosphate, 100 M NaCl (so in the source), 0.02% NaN3, pH 7.3, 298 K; aliquots over 38 days on analytical cation exchange chromatography; fraction of mixed dimers fitted to an exponential; dimer to monomers
[2] = target: GII.4 Saga P-domain (native, non-deamidated) (human norovirus GII.4 Saga); assay: native MS; 150 mM ammonium acetate pH 7.3, purified GII.4 Saga P-domain, 25 C, also at low protein concentration
[3] = target: T1, MNV CW1 P-domain (MNV-1 P-dimer) (Murine norovirus 1, UniProt Q80J94); assay: methyl TROSY NMR titration, TITAN global lineshape analysis; format: binding
T1 construct: gene ORF2; MBP-His8 fusion from E. coli BL21(DE3), cleaved with HRV3C; MIL(proS)V(proS)A 13C-methyl labelled for NMR

[4] = target: T1, MNV CW1 P-domain (MNV-1 P-dimer); assay: differential scanning fluorimetry (SYPRO orange); format: binding; conditions: pH 5.3, 20 mM sodium acetate, 100 mM NaCl; 3 µM protein; stabilisation rises with ligand concentration
[5] = target: the molecule itself; assay: native MS; 150 mM ammonium acetate pH 5.3, 2-92 uM purified P-domain, 25 C; relative dimer peak area against total protein fitted; dimer to monomers
[6] = target: the molecule itself; assay: NMR titration; 1H,15N TROSY HSQC spectra of [U-2H,15N] labeled P-domain at 24-200 uM protein; intensities of unassigned dimer cross-peaks; 298 K, 20 mM sodium acetate, 100 mM NaCl, pH* 5.3; dimer to monomers
[7] = target: the molecule itself; assay: SEC-MALS; Superdex 75 10/300 GL, 10-200 uM protein, 20 mM sodium acetate, 100 mM NaCl, pH 5.3
[8] = target: the molecule itself; assay: SEC; analytical Superdex 75 Increase 3.2/300, 20 mM sodium acetate, 100 mM NaCl, pH 5.3, 278 K; 250 nM-270 uM protein; apparent molecular weight against feed concentration fitted, apparent KD; lower limit from the 10x dilution; dimer to monomers
[9] = target: the molecule itself; assay: NMR titration; methyl TROSY (1H,13C HMQC) spectra of MILproSVproSA labeled apo P-domain at six concentrations 12.5-226 uM; global two-dimensional lineshape analysis with TITAN (dimerization model); 298 K, 20 mM sodium acetate-d3, 100 mM NaCl, pH* 5.26 in D2O; dimer to monomers

Molecule: GII.4 Saga P-domain point mutant N373Q (domain or fragment)
- dimer half-life time [1]: 127 h
- koff [1]: 1.51e-06 s⁻¹

Molecule: GII.4 Saga P-domain (native, non-deamidated) (domain or fragment)
- stoichiometry N [2]: 2

Molecule: C[C@H](CCC(=O)NCC(=O)O)[C@H]1CC[C@H]2[C@@H]3[C@H](O)C[C@@H]4C[C@H](O)CC[C@]4(C)[C@H]3CC[C@]12C [GCDCA, glycochenodeoxycholic acid]
- Kd [3]: 10.5 ± 0.5 µM
- TM [4]: thermostability of CW1 P-domains improves considerably with increasing GCDCA concentrations

B1: MNV-1 (CW1) P-domain (domain or fragment)
chain: TIYRMVDLPVIQPRLCTHARWPAPVYGLLVDPSLPSNPQWQNGRVHVDGTLLGTTPISGSWVSCFAAEAAYKFQSGTGEVATFTLIEQDGSAYVPGDRAAPLGYPDFSGQLEIEVQTETTKTGDKLKVTTFEMILGPTTNADQAPYQGRVFASVTAAASLDLVDGRVRAVPRSIYGFQDTIPEYNDGLLVPLAPPIGPFLPGEVLLRFRTYMRQIDTADAAAEAIDCALPQEFVSWFASNAFTVQSEALLLRYRNTLTGQLLFECKLYNEGYIALSYSGSGPLTFPTDGIFEVVSWVPRLYQLASVGSLATGRMLKQ
notes: Protruding (P)-domain of the major capsid protein VP1 of murine norovirus MNV-1 (CW1); construct truncated at the C-terminus compared to prior work; Monomer-dimer equilibrium in solution; Used unlabeled, [U-2H,15N] labeled or 13C-methyl (MILproSVproSA) labeled; also called MNV CW1 P-domain; MNV.CW1 P-domain; source: E. coli BL21 DE3, purified (Ni-NTA, HRV3C cleavage, Ni-NTA, SEC at pH 5.3)
- Kd [5]: 32 µM
- Kd [6]: ~31 µM
- stoichiometry N [7]: 2
- Kd [8]: 4 to 40 µM
- Kd [9]: 6.9 µM
- koff [9]: 1.25 s⁻¹
- kon [9]: 140000 M⁻¹ s⁻¹
